Data: article doi:10.1101/2024.05.22.595265 (bioRxiv, 2024)

T1: Aurora-A kinase domain 122-403 C290A,C393A (UniProt O14965 122-403, C290A | C393A)
T1 construct: Aurora-A Ser/Thr kinase, kinase domain, residues 122-403
T1 sequence (looked up): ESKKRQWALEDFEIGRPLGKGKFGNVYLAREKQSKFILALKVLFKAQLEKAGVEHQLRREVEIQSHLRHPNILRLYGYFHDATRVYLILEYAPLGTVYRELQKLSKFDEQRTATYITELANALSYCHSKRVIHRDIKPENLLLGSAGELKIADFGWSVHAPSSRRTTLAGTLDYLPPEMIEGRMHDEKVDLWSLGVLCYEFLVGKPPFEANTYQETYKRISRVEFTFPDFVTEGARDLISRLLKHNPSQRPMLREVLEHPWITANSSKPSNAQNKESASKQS


Target: T1, Aurora-A kinase domain 122-403 …
Assay: NMR titration; 1H-15N HSQC of 15N-labelled N-myc constructs (150-315 uM); aliquots of Aurora-A (305-400 uM) added up to [N-myc]:[Aurora-A] 1:1.4; 20 mM (K/H)3PO4 pH 6.5, 150 mM NaCl, 2 mM beta-mercaptoethanol, 1% glycerol, 5 mM MgCl2, 5 mM ADP
Settings: both partners purified

binding result	Binder
binds	N-myc 64-137 (domain or fragment, N-myc residues 64-137 (AIH and MBII); 15N-labelled; not shown: His-NusA, N-terminal, cleaved) GAMGSRGFAEHSSEPPSWVTEMLLENELWGSPAEEDAFGLGGLGGLTPNPVILQDCMWSGFSAREKLERAVSEKLQHG
binds	N-myc transactivation domain, N-myc 1-137 (domain or fragment, 15N-labelled for the NMR titration; also called N-myc TAD; N-myc_(1-137) TAD; not shown: His-NusA, N-terminal, cleaved) GAMMPSCSTSTMPGMICKNPDLEFDSLQPCFYPDEDDFYFGGPDSTPPGEDIWKKFELLPTPPLSPSRGFAEHSSEPPSWVTEMLLENELWGSPAEEDAFGLGGLGGLTPNPVILQDCMWSGFSAREKLERAVSEKLQHG
